Experimental findings from publication PMC6411835 are described below.

For series [1], the target named is T1, Zip2(499-704);Spo16 (Saccharomyces cerevisiae;Saccharomyces …, UniProt P53061;P17122 499-704;1-198, |).
T1 sequence 1: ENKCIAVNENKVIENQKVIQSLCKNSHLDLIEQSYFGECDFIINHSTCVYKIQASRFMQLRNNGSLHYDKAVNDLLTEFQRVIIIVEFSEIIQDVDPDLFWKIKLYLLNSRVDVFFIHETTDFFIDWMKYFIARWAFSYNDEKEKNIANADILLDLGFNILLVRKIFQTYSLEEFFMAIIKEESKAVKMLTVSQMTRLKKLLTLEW
T1 sequence 2: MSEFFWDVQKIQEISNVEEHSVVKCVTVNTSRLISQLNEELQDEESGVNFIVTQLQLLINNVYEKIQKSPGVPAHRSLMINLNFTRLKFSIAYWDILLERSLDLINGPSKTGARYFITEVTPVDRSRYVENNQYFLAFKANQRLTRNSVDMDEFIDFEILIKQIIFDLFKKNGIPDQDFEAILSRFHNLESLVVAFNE
In words: EMSA.

The target of series [2] is T1, Zip2(499-704);Spo16. In words: EMSA. This is another data set of the same source. A general note: In EMSA bound probe runs differently from free probe, usually more slowly.
For series [3], the target named is T1, Zip2(499-704);Spo16. In words: ITC.

B1: 40-bp dsDNA (dsDNA)
DNA 1: CCTTTCGAAGACTCATCACGGAGAGCAGACATCATCTGGC
DNA 2: GCCAGATGATGTCTGCTCTCCGTGATGAGTCTTCGAAAGG
Regarding B1, binding in the series with Zip2(499-704);Spo16 [1] was put at a Kd of 14 µM.

B2: 5'-overhang DNA (mixed)
DNA 1: CCTTTCGAAGACTCATCACGGAGAGCAGACATCATCTGGC
DNA 2: GCCAGATGATGTCTGCTCTC
As for B2, binding with Zip2(499-704);Spo16 [1] was put at a Kd of 9 µM. Compared with the last molecule, the Kd is about 1.6-fold lower.

B3: Holliday Junction (HJ) (structured_DNA)
DNA 1: CCTTTCGAAGACTCATCACGGAGAGCAGACATCATCTGGC
DNA 2: ATATATGATTCTAATAAGATCGTGATGAGTCTTCGAAAGG
DNA 3: GCCAGATGATGTCTGCTCTCGTCGTAATGTAAGTGTATGC
DNA 4: GCATACACTTACATTACGACATCTTATTAGAATCATATAT
B3: the Kd (as a rule, the equilibrium constant for the complex coming apart) with Zip2(499-704);Spo16 [2] was 5 µM; with Zip2(499-704);Spo16 [3] it was about 1 µM.

B4: 3'-overhang DNA (mixed)
DNA 1: CCTTTCGAAGACTCATCACGGAGAGCAGACATCATCTGGC
DNA 2: CGTGATGAGTCTTCGAAAGG
B4 came in with a dissociation constant Kd with Zip2(499-704);Spo16 [1] of 17 µM.
